Measurements as given in patent publication US20140237632A1 (UNIVERSITY OF CHICAGO, published 2014).

Key:
[1] = target: the molecule itself; assay: self-association; FRET in spectra and nondenaturing SDS-PAGE
[2] = target: the molecule itself; assay: self-association; nondenaturing SDS-PAGE
Procedure: FIG. 4. Decreasing the net charge near the N terminus of DsRed reduces aggregation of the protein. (A) Nondenaturing SDS-PAGE of purified DsRed1 (WT), the Round 1 variant (R1), the Round 3 variant (R3), the Round 4 variant (R4), DsRed.T1 (T1), DsRed.T3 (T3) and DsRed.T4 (T4). 1 μg of each purified DsRed variant was mixed with SDS-containing sample buffer on ice and immediately electrophoresed at 4° C. in a 10% poly-acrylamide gel, followed by staining with Coomassie Blue. WT* and T4*: Additional aliquots of DsRed1 and DsRed.T4 were denatured by boiling prior to electrophoresis. MW: broad range prestained protein standard (Bio-Rad). (B) To measure the solubilities of the fluorescent proteins in E. coli, cells carrying pREP4 plus pQE31-based expression vectors encoding DsRed1, DsRed2, the Round 3 variant, the Round 4 variant, or EGFP were grown to an OD₆₀₀ of 0.5, induced with IPTG for 7 h, then lysed with B-PER II and centrifuged for 20 min at 27,000×g. […] The bound antibody was detected using the ECL-Plus kit (Amersham) and a Molecular Dynamics Storm 860 phosphorimager. For each fluorescent protein, a dilution series from the bacterial extract was analyzed, and a sample within the linear range for the detection system was chosen. The percentage of each protein in the supernatant fraction was then quantified. […]

Row | Protein | binding result [1] | binding result [2]
1 | DsRed.T3 (other, Fluorescent protein variant, purified with a hexahistidine tag from E. coli; Entered only for its self-association (tetramer); not shown: N-terminal hexahistidine tag (pQE31) and polylinker upstream of the start codon, carrying P(-4)L) MASSEDVIKEFMRFKVRMEGSVNGHEFEIEGEGEGRPYEGTQTAKLKVTKGGPLPFAWDILSPQFQYGSKVYVKHPADIPDYKKLSFPEGFKWERVMNFEDGGVVTVTQDSSLQDGCFIYKVKFIGVNFPSDGPVMQKKTMGWEPSTERLYPRDGVLKGEIHKALKLKDGGHYLVEFKSIYMAKKPVQLPGYYYVDSKLDITSHNEDYTIVEQYERTEGRHHLFL | binds | –
2 | DsRed Round 4 variant (other, Round 3 variant plus R2A, K5E and N6D; also called R4; not shown: N-terminal hexahistidine tag (pQE31) and polylinker upstream of the start codon, carrying P(-4)L) MASSEDVIKEFMRFKVRMEGSVNGHEFEIEGEGEGRPYEGTQTAKLKVTKGGPLPFAWDILSPQFQYGSKVYVKHPADIPDYKKLSFPEGFKWERVMNFEDGGVVTVTQDSSLQDGCFIYKVKFIGVNFPSDGPVMQKKTMGWEASTERLYPRDGVLKGEIHKALKLKDGGHYLVEFKSIYMAKKPVQLPGYYYVDSKLDITSHNEDYTIVEQYERTEGRHHLFL | – | binds
3 | DsRed.T4 (other, Fluorescent protein variant, purified with a hexahistidine tag from E. coli; Entered only for its self-association (tetramer); not shown: N-terminal hexahistidine tag (pQE31) and polylinker upstream of the start codon, carrying P(-4)L) MASSEDVIKEFMRFKVRMEGSVNGHEFEIEGEGEGRPYEGTQTAKLKVTKGGPLPFAWDILSPQFQYGSKVYVKHPADIPDYKKLSFPEGFKWERVMNFEDGGVVTVTQDSSLQDGCFIYKVKFIGVNFPSDGPVMQKKTMGWEPSTERLYPRDGVLKGEIHKALKLKDGGHYLVEFKSIYMAKKPVQLPGYYYVDSKLDITSHNEDYTIVEQYERAEGRHHLFL | binds | –
